14 molecules from patent publication US20220289857A1 (Kyowa Kirin, published 2022) can be followed below.

The labels stand for the following.
B1: KO41c mouse monoclonal antibody (hybridoma-derived) (antibody, V domains shown)
VH: EVQLQQSGPELVKPGASVKMSCKASGYTFTDYNMHWVKQSHGKSLEWIGYINPNNGGTNYNQKFKGKATLTVNKSSRSAYMEFRSLTSEDSAVYYCASSGWFTYWGQGTLVTVSA
VL: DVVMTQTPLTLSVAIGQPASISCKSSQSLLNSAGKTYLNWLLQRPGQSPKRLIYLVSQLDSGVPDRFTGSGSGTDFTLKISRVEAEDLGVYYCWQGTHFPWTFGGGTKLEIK
notes: Hybridoma supernatant or purified antibody from an Fn14 knockout mouse; native mouse IgG, kappa
B2: A437/A290 mouse IgG1(D265A), kappa antibody (antibody, V domains shown)
VH: B1 VH with T28I, T30Q, N54R, G57W
VL: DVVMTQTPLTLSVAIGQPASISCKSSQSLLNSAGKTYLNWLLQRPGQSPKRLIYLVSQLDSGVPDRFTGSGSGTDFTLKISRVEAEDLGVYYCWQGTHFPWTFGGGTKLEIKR
B3: A448/A439 mouse IgG1(D265A), kappa antibody (antibody, V domains shown)
VH: B1 VH with T28I, T30Q, N54R
VL: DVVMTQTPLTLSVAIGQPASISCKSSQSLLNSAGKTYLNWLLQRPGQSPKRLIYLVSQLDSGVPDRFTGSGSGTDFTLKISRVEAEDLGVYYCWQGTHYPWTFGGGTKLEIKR
B4: A448/A290 mouse IgG1(D265A), kappa antibody (antibody, V domains shown)
VH: B1 VH with T28I, T30Q, N54R
VL: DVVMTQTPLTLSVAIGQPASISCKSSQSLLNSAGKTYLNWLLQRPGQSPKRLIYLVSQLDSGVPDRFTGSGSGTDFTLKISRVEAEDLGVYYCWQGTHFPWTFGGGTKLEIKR
B5: CRCBT-06-002 as mouse IgG1(D265A), kappa antibody (antibody, V domains shown)
VH: EVKLQQSGGGLVQPGGSMKLSCVASGFTFSYYWMNWVRQSPEQGLEWIAEIRLQSNDYPTHYAESVKGRFTISRDDSKNSVYLQMNNLRPEDTGIYYCACRYADYFDHWGQGTTLTVSS
VL: DTVLTQSPASLVVSLGQRATISCRASQSVSTSDYSYIHWYQQKPGQPPKFLIKYASNRDSGVPARFSGSGSGTDFTLNIHPVEEDDTAIYYCQHSWEIPPTFGAGTKLELQR
B6: R35B9 (A451/A452) antibody (antibody, V domains shown)
VH: B1 VH with T28I, T30Q, Y50S, N54R, G57W
VL: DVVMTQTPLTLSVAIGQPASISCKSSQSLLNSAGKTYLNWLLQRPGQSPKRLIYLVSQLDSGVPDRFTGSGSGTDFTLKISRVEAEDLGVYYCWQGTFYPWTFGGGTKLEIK
B7: R35B9(A56) (A486/A452) antibody (antibody, V domains shown)
VH: B1 VH with T28I, T30Q, Y50S, N54R, G56A, G57W
VL: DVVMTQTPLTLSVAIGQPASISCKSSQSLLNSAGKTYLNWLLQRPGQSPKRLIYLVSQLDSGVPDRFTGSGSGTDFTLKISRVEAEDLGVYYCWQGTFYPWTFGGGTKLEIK
notes: G56A in HCDR2 removes the NG deamidation site; Constant regions not clear
B8: A553/A472 humanized IgG4 Nullbody, kappa antibody (antibody, V domains shown)
VH: QVQLVQSGAEVKKPGASVKVSCKASGYIFQDYNMHWVKQAPGQGLEWIGSINPRNAWTNYNQKFKGKATITADTSTSTAYMELSSLRSEDTAVYYCASSGWFTYWGQGTLVTVSS
VL: DVVMTQSPLSLPVTIGQPASISCKSSQSLLNSAGKTYLNWLLQRPGQSPKRLIYLVSQLDSGVPDRFSGSGSGTDFTLKISRVEAEDVGVYYCWQGTFYPWTFGGGTKVEIKR
notes: also called hzR35B9(A56)-HV7c / hzR35B9-LV4
B9: A641/A468 humanized IgG4 Nullbody, kappa antibody (antibody)
heavy: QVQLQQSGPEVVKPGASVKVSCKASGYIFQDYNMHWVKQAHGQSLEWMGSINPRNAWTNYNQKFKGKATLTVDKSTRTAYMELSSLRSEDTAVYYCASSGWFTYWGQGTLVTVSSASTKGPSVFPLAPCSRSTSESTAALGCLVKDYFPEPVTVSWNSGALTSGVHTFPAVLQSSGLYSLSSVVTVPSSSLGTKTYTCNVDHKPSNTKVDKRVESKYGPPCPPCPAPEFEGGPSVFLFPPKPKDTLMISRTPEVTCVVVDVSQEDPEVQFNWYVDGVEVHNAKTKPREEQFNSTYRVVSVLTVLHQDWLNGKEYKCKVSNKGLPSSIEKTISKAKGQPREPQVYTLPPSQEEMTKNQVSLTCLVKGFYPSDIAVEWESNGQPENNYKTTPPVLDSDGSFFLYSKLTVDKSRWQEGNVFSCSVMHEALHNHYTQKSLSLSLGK
light: DVVMTQSPLSLPVTLGQPASISCKSSQSLLNSAGKTYLNWLQQRPGQSPRRLIYLVSQLDSGVPDRFSGSGSGTDFTLKISRVEAEDVGVYYCWQGTFYPWTFGGGTKVEIKRTVAAPSVFIFPPSDEQLKSGTASVVCLLNNFYPREAKVQWKVDNALQSGNSQESVTEQDSKDSTYSLSSTLTLSKADYEKHKVYACEVTHQGLSSPVTKSFNRGEC
B10: A648/A468 humanized IgG4 Nullbody, kappa antibody (antibody, V domains shown)
VH: QVQLQQSGPEVVKPGASVKVSCKASGYIFQDYNMHWVKQAHGQSLEWMGSINPRNAWTNYNDKFKGKATLTVDKSTRTAYMELSSLRSEDTAVYYCASSGWFTYWGQGTLVTVSS
VL: B8 VL with I15L, L42Q, K50R
B11: A512/A468 humanized IgG4 Nullbody, kappa antibody (antibody, V domains shown)
VH: B10 VH with Q5V, K38R, D62Q, K67R, L70I
VL: B8 VL with I15L, L42Q, K50R
notes: Human IgG4null constant (S228P, L235E, R409K); also called hzR35B9(A56)-HV11 / hzR35B9-LV1a
B12: A650/A468 humanized IgG4 Nullbody, kappa antibody (antibody)
heavy: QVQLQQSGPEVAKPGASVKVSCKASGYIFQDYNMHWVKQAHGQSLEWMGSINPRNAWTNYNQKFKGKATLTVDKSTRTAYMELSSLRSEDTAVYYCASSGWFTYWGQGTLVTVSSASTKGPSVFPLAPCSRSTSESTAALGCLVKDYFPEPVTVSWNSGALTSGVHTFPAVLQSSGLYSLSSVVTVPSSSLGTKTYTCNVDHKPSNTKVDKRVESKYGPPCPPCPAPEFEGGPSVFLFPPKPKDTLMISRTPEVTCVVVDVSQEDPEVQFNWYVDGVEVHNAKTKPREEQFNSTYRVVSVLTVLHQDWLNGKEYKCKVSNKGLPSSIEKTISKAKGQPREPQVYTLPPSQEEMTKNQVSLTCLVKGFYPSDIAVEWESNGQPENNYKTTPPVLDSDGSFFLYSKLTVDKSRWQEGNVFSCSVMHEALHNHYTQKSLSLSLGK
light: B9 light
B13: A515/A518 humanized IgG4 Nullbody, kappa antibody (antibody, V domains shown)
VH: B8 VH with K12V, K38R, P41H, I48M, S50Y, W57G, K67R, A68V, T74K, S77R
VL: B8 VL with I15L, L42Q, K50R, F98H
notes: also called hzR35B9(Y50A56G57)-HV7b / hzR35B9(H98)-LV1a
B14: chimeric R35B9 (antibody, human IgG4 S228P, kappa)
heavy chain: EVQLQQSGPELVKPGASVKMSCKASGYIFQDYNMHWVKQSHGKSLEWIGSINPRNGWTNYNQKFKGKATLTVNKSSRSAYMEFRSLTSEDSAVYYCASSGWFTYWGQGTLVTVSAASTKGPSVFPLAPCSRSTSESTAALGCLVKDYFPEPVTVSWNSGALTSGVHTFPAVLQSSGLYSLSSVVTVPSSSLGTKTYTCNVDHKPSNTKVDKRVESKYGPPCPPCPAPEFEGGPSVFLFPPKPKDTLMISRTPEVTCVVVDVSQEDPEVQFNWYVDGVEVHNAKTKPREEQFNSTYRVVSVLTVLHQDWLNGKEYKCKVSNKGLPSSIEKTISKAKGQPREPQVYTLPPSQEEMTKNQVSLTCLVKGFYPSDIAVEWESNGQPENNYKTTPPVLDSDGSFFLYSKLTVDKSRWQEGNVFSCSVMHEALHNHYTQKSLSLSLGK
light chain: B9 light with S7T, S10T, P12S, T14A, L15I, Q42L, R50K, S68T, V88L, V109L
notes: It may be the same molecule as m27, R35B9 (A451/A452), but neither the sheet nor the text says so; also called mouse-human chimeric R35B9

Residue numbers refer to the chain shown, from its start. Numbers in names are those of the source. Where “and” joins values, the source holds several entries; their conditions need not be identical. Equal entries are not always repeated.

One may read the Kd as the free concentration of one partner at which half of the binding sites on the other are occupied at equilibrium, for simple one-to-one binding. As usually defined, the koff is a measure of how fast the partners let go of each other. One may read the kon as the second-order rate constant of association.

T1 sequence (Q9CR75 other isoform, or with tags, fused parts or gaps limits assumed): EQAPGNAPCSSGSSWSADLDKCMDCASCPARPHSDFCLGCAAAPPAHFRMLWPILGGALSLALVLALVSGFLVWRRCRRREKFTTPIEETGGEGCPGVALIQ

One experiment concerns the target T1, rat Fn14, endogenous on NRK-52E cells (rat, UniProt Q9CR75 28-129 (mouse entry)).
T1 construct: Endogenous protein of rat kidney cells; also called NRK52E-A15/Luc cells
Briefly: flow cytometry on NRK-52E cells (endogenous rat Fn14), purified antibody 1 µg/mL, detected with anti-mouse IgG PE. As to the method: Primary antibodies were used at a concentration of 1 μg/mL and binding was detected using anti-mouse IgG PE.
(§1) Specifically, the binding activity of hybridoma culture supernatants or purified antibodies to Fn14-expressing cells was evaluated by flow cytometry (FCM). The cell lines evaluated by FCM were Fn14-transfected human embryonic kidney 293F cells (ThermoFisher, cat# R79007) and two cell lines endogenously expressing Fn14, human kidney-derived HK2 cells (ATCC, cat# CRL-2190) and rat kidney-derived NRK-52E cells (Japanese Collection of Research Bioresources Cell Bank (JCRB), cat# IF050480). For FCM analysis, Fn14-expressing cells were harvested using 0.25% trypsin-EDTA (Nacalai Tesque), washed with PBS, and resuspended in SM (Staining Medium: PBS containing 2% FBS, 1 mM EDTA, 0.05% sodium azide). Cells were then seeded in a 96-well plate at 1 ×10⁵ cells per well. Hybridoma supernatant or purified antibody (1 μg/mL final concentration) was added and the cells were incubated at 4° C. for 60 minutes. Cells were then washed with SM, resuspended in goat F(ab′)2 anti-mouse IgG-PE (Southern Biotech Inc.), diluted 1:500 in SM and incubated at 4° C. for 60 minutes. Cells were washed with SM and finally resuspended in 50 μL of SM. Fluorescence intensity was measured by FCM (BD Biosciences, FACS CantoII) and the data were analyzed using FlowJo software (Tomy Digital Biology Co., Ltd.).
(A flow cytometer gives signals particle by particle.)
With B1, the binding result is recorded as “binds”.

The target of the next experiment is T2, human Fn14 (full length) on cells (human, UniProt Q9NP84 28-129).
T2 sequence: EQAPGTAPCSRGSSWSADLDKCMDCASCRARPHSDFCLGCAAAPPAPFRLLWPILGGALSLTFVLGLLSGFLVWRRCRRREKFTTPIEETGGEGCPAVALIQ
Briefly: cell-based or functional assay.
Take B2: the “ICAM-1 MFI on HRMC, 250 ng/mL rhTWEAK, mAb 0.1 µg/mL” value amounted to 5110 MFI.
On the same count and under the same terms, the same measure for B3: 5480 MFI; for B4: 6430 MFI; for B5: 11800 MFI.

In a further experiment the target is T3, His-SUMO-huFn14 (soluble human Fn14 aa 28-75 with N-terminal 6xHis-SUMO tag) (human).
T3 construct: also called His-SUMO-Fn14; His-SUMO-hFn14
T3 sequence (chain, as listed by the source limits assumed): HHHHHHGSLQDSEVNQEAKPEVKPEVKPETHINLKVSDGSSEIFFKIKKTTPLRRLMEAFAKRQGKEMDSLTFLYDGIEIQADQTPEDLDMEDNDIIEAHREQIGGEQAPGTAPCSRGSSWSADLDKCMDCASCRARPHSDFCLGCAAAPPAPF
Briefly: SPR Biacore; His-Sumo-huFn14 0.111-9 nM. For orientation: In SPR one partner is held on a chip, and binding of the other changes the refractive index at the surface.
On to B6, for which the Kd stood at 0.132 nM, the koff came out at 0.000994 s⁻¹ and the kon came out at 7.52e+06 M⁻¹ s⁻¹.
Turning to B7, the Kd amounted to 0.0714 nM, the koff is 0.000354 s⁻¹ and the kon was 4.96e+06 M⁻¹ s⁻¹.

The target in a further experiment is T3, His-SUMO-huFn14 (soluble human Fn14 aa …). Briefly: SPR single-cycle kinetics; mAb captured by anti-human Fc, His-Sumo-Fn14 analyte; 1:1 fit. As for the experimental part: (§2) Alternatively, using a method referred to as “single cycle kinetics,” the His-Sumo-Fn14 was injected with increasing concentrations in a single cycle, the surface not being regenerated between injections. Specifically, anti-human Fc specific antibodies were immobilized on a CM5 sensor chip (cat# BR100012, GE Healthcare Life Sciences, Pittsburgh, Pennsylvania) by an amine coupling chemistry. Thereafter, humanized anti-Fn14 antibodies were captured at approximately 200 RUs, followed by injections of increasing concentrations of recombinant human His-Sumo-Fn14 protein. The association time was 120 seconds, and the final dissociation time was 900 seconds. At the end of the analyte injections, the surface was regenerated with 3M MgCl₂ for 30s. The raw data were double referenced by subtraction of the signals from a reference flow cell without immobilized ligand and a buffer blank. The sensorgram corresponding to each concentration was obtained (see FIG. 6B).
B8: the Kd is 0.374 nM and 0.347 nM and 0.353 nM; the koff was 0.000804 s⁻¹ and 0.000812 s⁻¹ and 0.000799 s⁻¹; the kon was 2.2e+06 M⁻¹ s⁻¹ and 2.3e+06 M⁻¹ s⁻¹ (2×).
As for B9, the Kd was 0.262 nM and 0.249 nM and 0.257 nM; the koff is 0.000756 s⁻¹ and 0.000773 s⁻¹ and 0.000764 s⁻¹; the kon was 2.89e+06 M⁻¹ s⁻¹ and 3.11e+06 M⁻¹ s⁻¹ and 2.97e+06 M⁻¹ s⁻¹.
Turning to B10, the Kd was 0.191 nM and 0.237 nM (2×); the koff is 0.000531 s⁻¹ and 0.000756 s⁻¹ and 0.000742 s⁻¹; the kon was 2.78e+06 M⁻¹ s⁻¹ and 3.19e+06 M⁻¹ s⁻¹ and 3.13e+06 M⁻¹ s⁻¹.
As to B11, the equilibrium dissociation constant (Kd) is 0.226 nM and 0.194 nM and 0.197 nM; the koff was 0.000679 s⁻¹ and 0.000664 s⁻¹ and 0.000652 s⁻¹; the kon was 3e+06 M⁻¹ s⁻¹ and 3.43e+06 M⁻¹ s⁻¹ and 3.31e+06 M⁻¹ s⁻¹.
B12: the Kd was 0.264 nM and 0.287 nM and 0.282 nM; the koff was 0.000871 s⁻¹ and 0.000843 s⁻¹ and 0.000825 s⁻¹; the kon was 3.3e+06 M⁻¹ s⁻¹ and 2.9e+06 M⁻¹ s⁻¹ (2×).
On to B13, for which the Kd was 0.461 nM and 0.473 nM and 0.477 nM; the koff was 0.00144 s⁻¹ and 0.00154 s⁻¹ and 0.0015 s⁻¹; the kon was 3.2e+06 M⁻¹ s⁻¹ (2×) and 3.1e+06 M⁻¹ s⁻¹.

The target in another experiment is T2, human Fn14 (full length) on cells. Briefly: flow cytometry blocking assay on HRMC: antibody for 30 min, then recombinant human TWEAK at 250 ng/mL for 45 min; bound TWEAK detected with biotinylated goat anti-human TWEAK and streptavidin-PE; blocked ligand: TWEAK. As to the method:
FIG. 25 depicts that humanized anti-Fn14 antibodies blocked TWEAK binding to Fn14 expressed on cells. HRMC were incubated with individual antibodies at various concentrations for 30 minutes followed by incubation with recombinant human TWEAK (250 ng/mL) for 45 minutes. Binding of TWEAK to HRMC cells was detected with biotinylated goat-anti-human TWEAK followed by streptavidin-PE. Stained cells were acquired on a Fortessa. % TWEAK blocking was calculated using the following formula: 100-(Geometric mean fluorescence intensity of sample—Geometric mean fluorescence intensity of cells without TWEAK)/(Geometric mean fluorescence intensity-TWEAK alone with no antibody—Geometric mean fluorescence intensity of cells without TWEAK)*100.
HRMC cells were incubated with individual antibodies at various concentrations (0.015625-1 ng/mL) for 30 minutes at room temperature. Recombinant human TWEAK (R&D Systems, Cat# 1090-TW/CF) was then added to the cells and incubated for 45 minutes at room temperature. Binding of TWEAK to HRMC cells was detected with a biotinylated goat-anti-human TWEAK (R&D Systems, Cat# BAF1090) followed by streptavidin-PE (Biolegend, Cat# 405204). Stained cells were acquired on a Fortessa. % TWEAK blocking was calculated using the following formula: 100-(Geometric mean fluorescence intensity of sample—Geometric mean fluorescence intensity of cells without TWEAK)/(Geometric mean fluorescence intensity—TWEAK alone with no antibody—Geometric mean fluorescence intensity of cells without TWEAK)*100.
Consider B8, for which the binding result is recorded as “binds”.
B14: the “IC50 (read off the curve)” value is about 0.2 mg/L.
Still for that read-out and setting: the same measure for B11: about 0.3 mg/L.
As for B13, the binding result is reported as “binds”.

A further experiment deals with T3, His-SUMO-huFn14 (soluble human Fn14 aa …). Briefly: SPR single-cycle kinetics; mAb captured by anti-human Fc, His-Sumo-Fn14 analyte; average of three runs. As for the experimental part: as §2
In turn, B8 came in with a Kd of 0.358 nM.
On the same count and under the same terms, the same measure for B9: 0.256 nM.
Same read-out and setting: the same measure for B10: 0.222 nM.
Molecule B11 gave a Kd of 0.206 nM.
In the case of B12, the Kd turned out to be 0.278 nM.
Turning to B13, the Kd is 0.47 nM.

The next experiment has as its target T4, mouse Fn14 (full length) on transfected 293F cells (mouse, UniProt Q9CR75 28-129).
T4 sequence: T2 sequence with A7S, R11S, R29P, P47H, T62V, F63L, G66A, L68V, G70S, A97G
Briefly: flow cytometry, hybridoma supernatant on 293F cells transfected with mouse Fn14, detected with anti-mouse IgG PE. As for the experimental part:
FIG. 1 depicts binding of anti-Fn14 hybridoma supernatants to human and mouse Fn14 transfected cells. […] Hybridoma supernatant binding was detected using anti-mouse IgG PE.
as §1, with “Cells were washed with SM and finally resuspended in 50 μL of SM.” left out
In the case of B1, the binding result is “binds”.
